Results taken from FireProtDB (doi:10.1021/bi982209j).
Several values for one entry are separate records, joined by “and”; a condition that tells them apart may be missing. Identical values can stand only once.

Conditions: Equus caballus; pH 7; 10 °C; GdnHCl; Fluorescence; Imidazole 50 mM

Sequence of Cytochrome c wild type, P00004 (P00004 whole entry): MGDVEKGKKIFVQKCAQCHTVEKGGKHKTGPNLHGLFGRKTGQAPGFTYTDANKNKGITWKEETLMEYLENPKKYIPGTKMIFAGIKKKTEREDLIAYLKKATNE

With Cytochrome c wild type, P00004 the denaturant m value was 2.7 kcal/mol/M and the unfolding free energy was 8.1 kcal/mol and 7.8 kcal/mol.
